Columns and labels:
[1] = target: T1, EGFR on SKOV3 and Aspc-1 tumor cells (human, UniProt P00533); assay: flow cytometry on Aspc-1 tumor cells, anti-human IgG PE, MFI, curve fit; unit from the concentration axis and paragraph 62; no upper plateau within the range shown [table]
T1 construct: endogenous, on the cell surface; the cell line is named under assay; also called tumor cell EGFR
Protocol: (§1) Two kinds of tumor cells, SKOV3 and Aspc-1, expressing EGFR were respectively plated in 96 well plates, with 3×10⁵ cells per well, and then the tumor cells were incubated with gradient diluted VHH-IgG4 antibody. After incubation on ice for half an hour, anti human IgG PE (Jackson Immuno Research, Code: 109-117-008, Lot:145501) was added for incubation, and then CytoFLEX flow cytometry was used for detection. The EC50 of the antibody was calculated by curve fitting.

[2] = target: T2, human EGFR.His antigen (Acro, Cat #EGR-H522a) (human, UniProt P00533 25-645); assay: competition ELISA: EGFR his tag protein coated, antibody titrated together with Human EGF-mouse IgG2a Fc, bound EGF detected with HRP anti-mouse IgG, unit taken from the concentration axis (paragraph 62 says nM); OD450 falls only from about 2.4 to about 2.1 [table]
T2 construct: extracellular domain; Bought protein; also called EGFR his tag protein; full-length EGFR extracellular domain protein; not shown: His tag
Protocol: (§2) Briefly, EGFR his tag protein was diluted with PBS to 2 μg/mL, and 100 μL of the antigen was added to each well of an ELISA plate and coated overnight at 4° C. The next day, the plates were washed twice with PBST (containing 0.5% TWEEN-20), and then blocked with 3% BSA at 37° C. for 1.5 h, followed by two washes with PBST. […] VHH-IgG4 antibodies were diluted to 2000 nM and then serially diluted 4-fold for 8 gradients. […] After washing 3 times, HRP goat anti-mouse IgG (Goat anti-Mouse IgG) (H+L) antibody (Abcam, cat #ab205719) diluted at 1:3000 was added to each well, and the plate was incubated at 37° C. for 40 min. The plates were then washed 3 times with PBST, and 100 μL of TMB substrate was added to each well and allowed to react for 3-5 min. The reaction was stopped by adding 100 μL of 3N hydrochloric acid per well. After stopping the reaction, the optical density at 450/650 nm was measured using a Tecan microplate reader. The dose-response curve was plotted, and the IC50 was calculated using GraphPad Prism 8.0 software.

[3] = target: T1, EGFR on SKOV3 and Aspc-1 tumor cells; assay: flow cytometry on SKOV3 tumor cells, anti-human IgG PE, MFI, curve fit; unit from the concentration axis and paragraph 62 [table]
Protocol: as §1

[4] = target: T2, human EGFR.His antigen (Acro, Cat …); assay: competition ELISA: EGFR his tag protein coated, antibody titrated together with Human EGF-mouse IgG2a Fc, bound EGF detected with HRP anti-mouse IgG, unit taken from the concentration axis (paragraph 62 says nM); OD450 falls only from about 2.4 to about 2.1-2.2 [table]
Protocol: as §2

[5] = target: T1, EGFR on SKOV3 and Aspc-1 tumor cells; assay: flow cytometry on Aspc-1 tumor cells, anti-human IgG PE, MFI, curve fit; unit from the concentration axis and paragraph 62 [table]
Protocol: as §1

[6] = target: T3, EGFR-D4 (F481-S645, P00533-1 (uniprot)) his tag antigen (human, UniProt P00533 481-645); assay: ELISA: EGFR-D4 his tag antigen coated at 0.5 µg/mL, antibody at 2000, 200, 20, 2 nM, HRP goat anti-human IgG Fc, OD450
T3 construct: range 481-645; also called IV domain protein; EGFR-D4 protein; not shown: His tag
Protocol: (2) Protein Binding Epitope Analysis: ELISA was used to determine the binding of VHH-IgG4 antibody to each domain of EGFR extracellular protein. Briefly, EGFR his tag protein, and EGFR-V3-his tag antigen protein were diluted to 1 μg/mL, EGFR-D1D2 (L25-A310, P00533-1 (uniprot)), and EGFR-D4 (F481-S645, P00533-1 (uniprot)) his tag antigen were diluted to 0.5 μg/mL, and each well of an ELISA plate was coated with […] antigen and incubated overnight at 4° C. The next day, the plates were washed twice with PBST (added with 0.5% TWEEN-20), then blocked with 3% BSA at 37° C. for 1.5 h, and then washed twice with PBST. Then, the antibody to be tested was diluted to 50 nM, 5 nM, 0.5 nM, 0.05 nM, and added to the wells coated with EGFR his tag protein or EGFR-V3-his tag antigen at 100 µL/well, respectively. The antibody was diluted to 2000 nM, 200 nM, 20 nM, 2 nM, and added to the wells coated with EGFR his tag protein or EGFR-V3-his tag antigen at 100 µL/well, respectively. The ELISA plates were incubated at 37° C. for 1 h. The plates were then washed three times with PBST, and then 100 μL HRP labeled Goat anti human IgG Fc antibody (1:10000, Bethyl) was added into each well, and incubated at 37° C. for another 40 min. After washing the plates four times with PBST, 100 μL of TMB substrate was added to each well, and the reaction was allowed to proceed for 3-5 min. The reaction was stopped by adding 100 μL of 3N hydrochloric acid per well. After stopping the reaction, the optical density at 450/650 nm was measured using a Tecan microplate reader.

[7] = target: T1, EGFR on SKOV3 and Aspc-1 tumor cells; assay: flow cytometry on SKOV3 tumor cells, anti-human IgG PE, MFI, curve fit; unit from the concentration axis and paragraph 62; the curve is barely above Isotype 2: MFI about 1800 at about 250 nM, no plateau [table]
Protocol: as §1

[8] = target: T1, EGFR on SKOV3 and Aspc-1 tumor cells; assay: flow cytometry on Aspc-1 tumor cells, anti-human IgG PE, MFI, curve fit; unit from the concentration axis and paragraph 62; the curve is barely above Isotype 2: MFI at most about 1500 [table]
Protocol: as §1

[9] = target: T2, human EGFR.His antigen (Acro, Cat …); assay: competition ELISA: EGFR his tag protein coated, antibody titrated together with Human EGF-mouse IgG2a Fc, bound EGF detected with HRP anti-mouse IgG, unit taken from the concentration axis (paragraph 62 says nM); the curve does not fall (OD450 about 2.4 to 2.65), no blocking, so the fit is not meaningful [table]
Protocol: as §2

| Binder | EC50 [1] | IC50 [2] | EC50 [3] | EC50 [5] | binding result [6] | other results |
| --- | --- | --- | --- | --- | --- | --- |
| E003 VHH-IgG4 antibody (antibody, V domains shown, not shown: a dimerising Fc or GST) VH: QVQLVESGGGLVQPGGSLRLSCVASGGVFSSYAMGWYRQVPGKLRELVATITSGHSTTYADIVRGRFTISRDNTKNTVYLQMNRLEPDDTAVYYCNRSPYTPGNWGQGTLVTVSS | 17 nM | 0.084 µg/mL | 6.5 nM |  |  |  |
| E005 VHH-IgG4 antibody (antibody, V domains shown, VHH fused to IgG4 (VHH-IgG4), expressed in ExpiCHO, protein A purified; not shown: human IgG4 constant part from the pCDNA3.4-IgG4 vector) VH: QVQLVESGGGLVQPGGSLRLSCEASGFAFSDYTMRWHRQAAGKELELVAYITSAGDIIKYANSVRGRFTISRDNAKNTLYLQMDSLKPEDTAVYRCNALVSASVRASDYWGQGTLVTVSS | 15 nM |  | 9.7 nM |  |  | IC50 [4]: 0.033 µg/mL |
| E007 VHH-IgG4 antibody (antibody, V domains shown, not shown: a dimerising Fc or GST) VH: EVQLVESGGGLVQPGGSLRLSCEASGFSFSDHTMRWHRQAAGKNLELVAYITPAGDIIKYADSVQGRFTISRDNAKNMLYLQMDSLRPDDTAVYRCNALVSAAVRASDYWGQGTQVTVSS | 39 nM |  | 14 nM |  |  |  |
| E008 VHH-IgG4 antibody (antibody, V domains shown, VHH fused to IgG4 (VHH-IgG4), expressed in ExpiCHO, protein A purified; not shown: human IgG4 constant part from the pCDNA3.4-IgG4 vector) VH: EVQVVESGGGLVQSGGSLTLSCTSSGLPLLDYAIGWFRQAPGKEREAVSAISISEGSTYYTDSVRGRFTISRDNNKNKVYLRMDNLKPEDTAVYYCAADKTDIGFWLLVGGAGGGEVRYEYWGQGTQVTVSS |  |  | 1.1 nM | 1.5 nM | no binding (tested: 2000 nM) |  |
| E004 VHH-IgG4 antibody (antibody, V domains shown, not shown: a dimerising Fc or GST) VH: EVQLVESGGGLAQSGGSLRLACEASGFPFETYAMSWARQTPGNEPEWVAGIFPDGKHTAYAHSVKGRFTISRVNANNTVYLQMDSLKPEDTAVYYCAKDLPFFATPSFYIGYWGQGTLVTVSS |  |  |  |  |  | EC50 [7]: 245 nM; EC50 [8]: 3.6 nM; IC50 [9]: ~22.8 µg/mL |
| E002 VHH-IgG4 antibody (antibody, V domains shown, VHH fused to IgG4 (VHH-IgG4), expressed in ExpiCHO, protein A purified; not shown: human IgG4 constant part from the pCDNA3.4-IgG4 vector) VH: QVQLVESGGGLVQAGGSLRLSCAASGFTFSDYAVSWYRQAPGKEREFVARITGTGETSRYEDSVKGRFAISRDNVKNTAYLQMNSLKPEDTAVYYCSIYHPPRDYWGQGTQVTVSS |  | 0.038 µg/mL | 2.3 nM | 3.7 nM | no binding (tested: 2000 nM) |  |

Reference: patent US20250215092A1 (ZHEJIANG NANOMAB TECHNOLOGY CENTER, published 2025)
